Reference: patent US20250197503A1, “ANTI-HUMAN PD-Ll AND TLR7 DOUBLE-TARGETING NANOBODY CONJUGATE DRUG AND USE THEREOF IN RESISTING TUMOR” (SHANGHAI INSTITUTE OF MATERIA MEDICA , CHINESE ACADEMY OF …, priority 2022, published 2025)

Columns and labels:
[1] = molecular target: T1, human PD-1/PD-L1 (Homo sapiens, UniProt Q9NZQ7); assay: Blocking of human PD-1/PD-L1 binding on HEK293T/hPD-L1 cells, single concentration, flow cytometry; details: nanobody 10 μg/ml, human PD-1-his 1 μg/mL, FIG. 2
T1 construct: expressed in transfected cells; host or cells: HEK293T
T1 sequence (Q9NZQ7 19-290): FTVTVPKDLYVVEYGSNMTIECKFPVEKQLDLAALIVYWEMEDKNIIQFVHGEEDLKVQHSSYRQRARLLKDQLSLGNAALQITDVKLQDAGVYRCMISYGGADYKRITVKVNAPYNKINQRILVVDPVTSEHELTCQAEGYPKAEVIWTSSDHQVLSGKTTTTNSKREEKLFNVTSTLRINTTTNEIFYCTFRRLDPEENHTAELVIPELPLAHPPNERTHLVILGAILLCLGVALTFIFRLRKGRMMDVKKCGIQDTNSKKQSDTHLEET
Description: The stably transfected cell line HEK293T/hPD-L1 was digested and centrifuged to remove the supernatant. The cells were washed once with PBS and the cell density was adjusted to 2.5×10^6 cells/mL. 100 μL of cell suspension was added to each cell sample, i.e., 2.5×10^5 cells/sample. The human PD-1-his protein (at a concentration of 1 μg/mL) and candidate anti-human PD-L1 nanobodies (at a concentration of 10 μg/ml) were added to the samples respectively. The abtained samples were incubated in a refrigerator at 4° C. for 20 min and centrifuged to remove the supernatant. The obtained samples were washed once with PBS. The diluted antibody anti-his-APC was used as the secondary antibody to resuspend the above cells. The cells were incubated in a refrigerator at 4° C. for 20 min and centrifuged to remove the supernatant. The cells were washed twice with PBS, transferred to a flow tube; and detected by flow cytometry.

[2] = molecular target: T2, PD-L1 (Homo sapiens, UniProt Q9NZQ7); assay: Binding of candidate nanobodies to human PD-L1 on HEK293T/hPD-L1 cells, flow cytometry; design: expressed in transfected cells; host or cells: HEK293T; details: nanobody 10 μg/ml, FIG. 1
T2 sequence (Q9NZQ7 19-290): as above
Description: The stably transfected cell line HEK293T/hPD-L1 was digested and centrifuged, and the supernatant was removed. The cells were washed once with PBS and the cell density was adjusted to 2.5×10^6 cells/mL. 100 μL of cell suspension was added to each cell sample, i.e., 2.5×10^5 cells/sample. Different anti-human PD-L1 candidate nanobodies (at a concentration of 10 μg/ml) were added into the samples. The samples were incubated in a 4° C. refrigerator for 20 min and then centrifuged to remove the supernatant, and washed once with PBS. The diluted antibody anti-human IgG Fc (FITC) was used as a secondary antibody to resuspend the above cells. The abtained samples were incubated in a 4° C. refrigerator for 20 min and centrifuged to remove the supernatant. The cells were washed twice with PBS, transferred to a flow tube; and detected on a flow cytometer to obtain the binding activity of the candidate nanobody with human PD-L1, as shown in FIG. 1.

[3] = system: CT26/hPD-L1 tumor; assay: In vivo anti-tumor activity in CT26/hPD-L1 tumor model; design: species or system BALB/c mice with dual humanization of PD-1/PD-L1; details: 10 mg/kg intraperitoneal, 6 administrations D0-D16, tumors dissected on Day 17
Description: To further evaluate the in vivo anti-tumor activity of anti-human PD-L1 and TLR7 dual-targeting nanobody conjugates, the CT26/hPD-L1 tumor model established by using BALB/c mice with dual humanization of PD-1/PD-L1 targets was used. When the average tumor volume reached 80-100 mm^3, the mice were randomly divided into 6 groups according to the tumor volume, with 6 mice in each group; the day of grouping was defined as DO, and the drugs were administered on DO, D3, D7, D10, D13, and D16, for a total of 6 times, with a dose of 10 mg/kg by intraperitoneal administration. The tumor size was measured 2-3 times a week, and the tumor growth curve was plotted.

[4] = molecular target: T1, human PD-1/PD-L1; assay: IC50 of blocking human PD-1/PD-L1 binding on HEK293T/hPD-L1 cells, flow cytometry; details: FIG. 3; for IC50 activity in blocking human PD-1/PD-L1 binding, compared with KN035: human PD-1-his 1 μg/mL
Description: The cell samples were prepared by digesting the stably transfected cell line HEK293T/hPD-L1. Different concentrations of nanobodies h_Nb1 or h_Nb2 or positive control antibody KN035 (sequence from the IMGT database) and human PD-1-his protein (concentration of 1 μg/mL) were added to the samples. After incubation and centrifugation, anti-his-APC was used as the secondary antibody for incubation and staining; and then the flow cytometer was used for detection to obtain the IC50 value of the candidate nanobody in blocking the binding of human PD-1/PD-L1, as shown in FIG. 3.

[5] = molecular target: T2, PD-L1; assay: Affinity of affinity-matured nanobodies to PD-L1 compared with the original antibodies; assay type: binding; details: relative to original antibody (h_Nb1 VHH or h_Nb2 VHH)
From the text: The full-length amino acid sequences of preferred nanobodies that specifically bind to human PD-L1 in the above examples (SEQ ID No. 1 and SEQ ID No. 5) were annotated with the CCG method for the antibody CDR and FR regions. Suitable FR and CDR region templates were selected by antibody homology modeling to construct and select the optimal nanobody three-dimensional protein structure. The crystal structure of human PD-L1 protein was obtained from the PDB protein database. A preferred candidate library of PD-L1 nanobody-PD-L1 protein complex structures was obtained by protein complex homology modeling and protein-protein molecular docking methods. Based on the PD-1/PD-L1 in vitro competitive binding characteristics of the preferred antibodies, a suitable docking angle was selected to determine the optimal docking conformation. The key interaction sites of the selected nanobody-PD-L1 protein complex structure were analyzed, with attention paid to Van Der Waals forces, hydrogen bonds, ionic bonds, hydrophobic interactions, etc. The pairs of action sites with low affinity energy values between the nanobodies and the action sites on PD-L1 were focused on as affinity maturation point mutation objects. […] Finally, the affinity maturation scheme of the CDR regions of the preferred antibodies was determined, and the sequences of the antibodies after affinity maturation were SEQ ID NO. […]

| Molecule | binding activity to human PD-L1 [2] | also measured |
| --- | --- | --- |
| h_Nb1: anti-human PD-L1 nanobody, VHH SEQ ID NO: 1 (protein, h_Nb1 VHH) VHH: DVQLQESGGGLVQPGGSLRLSCAASGFTFSSYAMSWVRQAPGKGLEWVSDINSGGDNTDYADSVKGRFTISRDNAKNTLYLQMNSLKPEDTAVYYCARGPKLCFSSWGQGTQVTVSS | good binding activity | activity in blocking human PD-1/PD-L1 binding [1]: effectively block; tumor inhibition rate [3]: 81.17%; IC50 activity in blocking human PD-1/PD-L1 binding, compared with KN035 [4]: comparable to those of the positive control antibody KN035 |
| h_Nb2: anti-human PD-L1 nanobody, VHH SEQ ID NO: 5 (protein, h_Nb2 VHH) VHH: DVQLQESGGGLVQPGGSLRLSCAASGFTFGDRWMYWLRQAPGKGLEWVSSINPAGRSTYYADSVKGRFTISRDNAKNTLYLQMNSLKSEDTAVYYCTKDPGGYQKGQGTQVTVSS | good binding activity | activity in blocking human PD-1/PD-L1 binding [1]: effectively block; tumor inhibition rate [3]: 85.14%; in vitro activity compared with KN035 ([4]; PD-1/PD-L1 blocking): superior to that of KNO35; IC50 activity in blocking human PD-1/PD-L1 binding, compared with KN035 [4]: comparable to those of the positive control antibody KN035 |
| h_Nb4: anti-human PD-L1 nanobody, VHH SEQ ID NO: 9 (protein, h_Nb4 VHH) VHH: DVQLQESGGGLVQAGGSLRLSCAAPSRMFSGYTMGWYRQAPGKQRELVAQIANGGFTDYIDSVKGRFSISRDTVLNMMYLQMNSLKPEDTAVYYCNLVLVNGIPTRNWGQGTQVTVSS | good binding activity |  |
| h_Nb5: anti-human PD-L1 nanobody, VHH SEQ ID NO: 13 (protein, h_Nb5 VHH) VHH: DVQLQESGGGAVQSGESLRLSCAASGRDLMFYDVAWFRQAPGKEREGVSYIRSSGTLTKYADSVKGRFTISRDNDKNTVSLQMNSLNPEDTAKYYCAARLQSATSHSDLREDEFNSWGQGTQVTVSS | good binding activity |  |
| h_Nb6: anti-human PD-L1 nanobody, VHH SEQ ID NO: 17 (protein, h_Nb6 VHH) VHH: DVQLQESGGGLAQPGGSLRLSCAASGFTFSSYAMSWARQAPGKGLEWVAGIYRGGSDTYYADSVKGRFTISRDNTKNTLYLQMNSLKPEDTALYYCIQGWGLGYANYDYWGQGTQVTVSS | good binding activity |  |
| h_Nb9: anti-human PD-L1 nanobody, VHH SEQ ID NO: 20 (protein, h_Nb9 VHH) VHH: DVQLQESGGGLVQPGGSLRLSCASSGSIFGLGVKGWYRQPPGNQREMVAQIISGGRISYADSVKGRFTISRDNAKNTVYLQMNSLKPEDTAVYYCNAWGPGQRNYWGRGTQVTVSS | good binding activity |  |
| h_Nb12: anti-human PD-L1 nanobody, VHH SEQ ID NO: 24 (protein, h_Nb12 VHH) VHH: DVQLQESGGGLVQAGGSLRLSCAASGRTFSSRAMGWFRQAPGKEREFVAAISGSGRNTYYADSVKGRFTISRDNAKNSVNLQMNSLKPEDTAVYYCNAAGGGITIATMTQRTQYDYWGQGTQVTVSS | good binding activity |  |
| h_Nb13: anti-human PD-L1 nanobody, VHH SEQ ID NO: 28 (protein, h_Nb13 VHH) VHH: DVQLQESGGGLVQPGGSLRLSCAASGSIFSINAMGWYRQAPGKSRELVAAITSGGSTNYADSVKGRFTISRDTAKNTVYLLMNSLEPEDTAVYYCNVERRRPPHYLSEYDFDWGQGTQVTVSS | good binding activity |  |
| h_Nb26: anti-human PD-L1 nanobody, VHH SEQ ID NO: 36 (protein, h_Nb26 VHH) VHH: DVQLQESGGGLVQPGGSLRLSCAAPGSIFRINAMGWYRQAPGKQRELVAAITSGGSTNYADSVQGRFTISRDNAKNTVYLQMNSLKPEDTAVYYCNVERRRPPHYYSDYDFDWGQGTQVTVSS | good binding activity |  |
| KN035: positive control antibody (sequence from the IMGT database) (antibody, chains of the INN, looked up, V domains shown) VH: QVQLVESGGGLVQPGGSLRLSCAASGKMSSRRCMAWFRQAPGKERERVAKLLTTSGSTYLADSVKGRFTISRDNSKNTVYLQMNSLRAEDTAVYYCAADSFEDPTCTLVTSSGAFQYWGQGTLVTVSS |  | tumor inhibition rate [3]: 65.83% |
| h_Nb2_G101Y: affinity-matured VHH of h_Nb2, SEQ ID NO: 92 (protein, h_Nb2_G101Y VHH) VHH: DVQLQESGGGLVQPGGSLRLSCAASGFTFGDRWMYWLRQAPGKGLEWVSSINPAGRSTYYADSVKGRFTISRDNAKNTLYLQMNSLKSEDTAVYYCTKDPGYYQKGQGTQVTVSS |  | Improved value of relative affinity [5]: 8.4837 |
